Laboratory results from PMC7897507.

Assays:
[1] = tested on: EcSSB H55Y (Escherichia coli); assay: optical tweezers; settings: 5 nM monomeric H55Y, k-b/kb, 12 pN, 50 mM Na+, 10 mM HEPES pH 7.5, room temperature, ssDNA at 12 pN unless stated, Mg2+ buffer adds 4 mM Mg2+, AFM 10 mM Na+, 10 mM Mg2+
[2] = tested on: EcSSB WT (Escherichia coli); assay: optical tweezers; settings: 12 pN, 50 mM Na+, 10 mM HEPES pH 7.5, room temperature, ssDNA at 12 pN unless stated, Mg2+ buffer adds 4 mM Mg2+, AFM 10 mM Na+, 10 mM Mg2+

Question: What does the source list for 8.1 knt ssDNA (pBACgus11)?
Answer: Kd [1]: 0.1 nM; Kd ([2]; EcSSB8 mode, fit of equilibrium fractions (Fig. 2C)): 0.04 nM; Kd ([2]; single-domain unwrapped EcSSB8 mode, from k-b/kb): 0.08 nM
